Changes are numbered by the printed parent chain. Names may count otherwise.
T1: human CD19 (human, UniProt P15391 20-556)
T1 construct: CD19 as expressed on Raji, NALM-6 and SU-DHL-6 cells; also called CD19 antigen; B-cell surface antigen B4
T1 sequence: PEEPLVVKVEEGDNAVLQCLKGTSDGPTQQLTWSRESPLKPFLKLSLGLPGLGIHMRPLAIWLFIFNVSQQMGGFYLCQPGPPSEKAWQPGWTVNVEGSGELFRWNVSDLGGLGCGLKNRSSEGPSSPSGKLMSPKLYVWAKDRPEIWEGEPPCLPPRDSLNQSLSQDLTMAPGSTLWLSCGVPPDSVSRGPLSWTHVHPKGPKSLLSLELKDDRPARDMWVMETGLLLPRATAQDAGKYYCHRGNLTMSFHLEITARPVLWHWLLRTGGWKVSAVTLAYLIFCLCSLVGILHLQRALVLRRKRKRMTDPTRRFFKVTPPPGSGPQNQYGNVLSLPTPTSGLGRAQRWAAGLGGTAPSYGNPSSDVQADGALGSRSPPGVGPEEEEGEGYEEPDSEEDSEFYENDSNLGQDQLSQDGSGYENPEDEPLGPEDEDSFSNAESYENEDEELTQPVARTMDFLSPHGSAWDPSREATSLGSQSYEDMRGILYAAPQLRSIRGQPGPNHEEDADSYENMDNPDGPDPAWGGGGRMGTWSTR

B1: VH16 Y32F/R94K/VL43 V3Q/T7S/P44I/N92A (antibody, human IgG1, name in Kabat numbering, V domains shown)
VH: QVQLVQSGGGVVQPGRSLRLSCAASGVSLPDFGVSWVRQAPGKGLEWVAVIWGSETTYYNSALKSRFTISRDNSKNTLYLQMNSLRAEDTAVYYCAKHYYYGGSYAMDYWGQGTLVTVSS
VL: DIQMTQSPSSLSASVGDRVTITCRASQDISKYLNWYQQKPGKAIKLLIYHTSRLHSGVPSRFSGSGSGTDFTLTISSLQPEDFATYYCQQGATLPYTFGPGTKVDIKR
notes: Full-length human IgG1/kappa; substitutions in Kabat numbering
B2: VH16/VL43-P44V (antibody, human IgG1, V domains shown)
VH: B1 VH with F32Y, K97R
VL: B1 VL with Q3V, S7T, I44V, A92N
notes: substitutions in Kabat numbering
B3: VH16-L78V/VL43-P44V (antibody, human IgG1, name in Kabat numbering, V domains shown)
VH: B1 VH with F32Y, L78V, K97R
VL: B1 VL with Q3V, S7T, I44V, A92N
notes: as for B2
B4: VH16 Y32F/R94K/VL43 V3Q/T7S/Y32F/P44I/N92A (antibody, human IgG1, name in Kabat numbering, V domains shown)
VH: B1 VH
VL: B1 VL with Y32F
notes: as for B1
B5: VH16-R94K/VL43-Y87F (antibody, human IgG1, V domains shown)
VH: B1 VH with F32Y
VL: B1 VL with Q3V, S7T, I44P, Y87F, A92N
notes: as for B1
B6: VH16-R94K/VL43-P44V (antibody, human IgG1, V domains shown)
VH: B1 VH with F32Y
VL: B1 VL with Q3V, S7T, I44V, A92N
notes: as for B1
B7: VH16 Y32F/R94K/Y97F/VL43 V3Q/T7S/P44I/N92A (antibody, human IgG1, name in Kabat numbering, V domains shown)
VH: B1 VH with Y100F
VL: B1 VL
notes: as for B1
B8: VH16 R94K/Y97F/VL43 V3Q/T7S/Y32F/P44I/N92A (antibody, human IgG1, name in Kabat numbering, V domains shown)
VH: B1 VH with F32Y, Y100F
VL: B1 VL with Y32F
notes: as for B1
B9: VH16/VL43-Y87F (antibody, human IgG1, V domains shown)
VH: B1 VH with F32Y, K97R
VL: B1 VL with Q3V, S7T, I44P, Y87F, A92N
notes: as for B2
B10: VH16-R94K/VL43-F71Y (antibody, human IgG1, V domains shown)
VH: B1 VH with F32Y
VL: B1 VL with Q3V, S7T, I44P, F71Y, A92N
notes: as for B1
B11: VH16 R94K/VL43 V3Q/T7S/Y32F/N92A (antibody, human IgG1, V domains shown)
VH: B1 VH with F32Y
VL: B1 VL with Y32F, I44P
notes: as for B1
B12: VH16-G42R/VL43-Y87F (antibody, human IgG1, name in Kabat numbering, V domains shown)
VH: B1 VH with F32Y, G42R, K97R
VL: B1 VL with Q3V, S7T, I44P, Y87F, A92N
notes: as for B2
B13: VH16 R94K/VL43 V3Q/T7S/N92A (antibody, human IgG1)
heavy: not shown
VL: DIQMTQSPSSLSASVGDRVTITCRASQDISKYLNWYQQKPGKAPKLLIYHTSRLHSGVPSRFSGSGSGTDFTLTISSLQPEDFATYYCQQGATLPYTFGPGTKVDIKRTVAA
notes: as for B1
B14: VH16 R94K VL43 Y32F (antibody, human IgG1, V domains shown)
VH: B1 VH with F32Y
VL: B1 VL with Q3V, S7T, Y32F, I44P, A92N
notes: as for B1
B15: VH16-Q6E/VL43-V3Q/T7S (antibody, human IgG1, name in Kabat numbering, V domains shown)
VH: B1 VH with Q6E, F32Y, K97R
VL: B1 VL with I44P, A92N
notes: as for B2
B16: VH16/VL43-V3Q/T7S (antibody, human IgG1, V domains shown)
VH: B1 VH with F32Y, K97R
VL: B1 VL with I44P, A92N
notes: as for B2
B17: VH16-G42R/VL43 (antibody, human IgG1, name in Kabat numbering, V domains shown)
VH: B1 VH with F32Y, G42R, K97R
VL: B1 VL with Q3V, S7T, I44P, A92N
notes: as for B2
B18: VH16-R71K/VL43-F71Y (antibody, human IgG1, name in Kabat numbering, V domains shown)
VH: B1 VH with F32Y, R71K, K97R
VL: B1 VL with Q3V, S7T, I44P, F71Y, A92N
notes: as for B2
B19: VH16-G42R/VL43-F71Y (antibody, human IgG1, name in Kabat numbering, V domains shown)
VH: B1 VH with F32Y, G42R, K97R
VL: B1 VL with Q3V, S7T, I44P, F71Y, A92N
notes: as for B2
B20: VH16-F67L/VL43-P44V (antibody, human IgG1, name in Kabat numbering, V domains shown)
VH: B1 VH with F32Y, F67L, K97R
VL: B1 VL with Q3V, S7T, I44V, A92N
notes: as for B2
B21: VH16-F67L/VL43 (antibody, human IgG1, name in Kabat numbering, V domains shown)
VH: B1 VH with F32Y, F67L, K97R
VL: B1 VL with Q3V, S7T, I44P, A92N
notes: as for B2
B22: VH2VL40 (antibody, V domains shown)
VH: B1 VH with Q1E, Q6E, F32Y, R86K, A87T, A96T, K97T
VL: B1 VL with Q3V, S7T, A43V, I44P, K45N, D70E, A92N, P100G, D105E
B23: VH20/VL44 (antibody, human IgG1, V domains shown)
VH: B1 VH with V11L, R16G, A23V, F32Y, A49S, S74A, T77S, K97R
VL: B1 VL with Q3V, L11M, V15I, I44P, K45N, D70E, A92N, P100Q, V104L, D105E
B24: VH5VL40 (antibody, V domains shown)
VH: EVQLVESGGGLVKPGGSLRLSCAASGVSLPDYGVSWIRQAPGKGLEWVSVIWGSETTYYNSALKSRFTISRDNAKNSLYLQMDSLRVEDTAVYYCAGHYYYGGSYAMDYWGQGTLVTVSS
VL: B1 VL with Q3V, S7T, A43V, I44P, K45N, D70E, A92N, P100G, D105E
B25: VH5VL39 (antibody, V domains shown)
VH: B24 VH
VL: B1 VL with Q3V, S10T, I44P, D70E, E81D, A92N, P100Q, D105E
B26: VH16/VL44 (antibody, human IgG1, V domains shown)
VH: B1 VH with F32Y, K97R
VL: B1 VL with Q3V, L11M, V15I, I44P, K45N, D70E, A92N, P100Q, V104L, D105E
B27: VH20/VL39 (antibody, human IgG1, V domains shown)
VH: B24 VH with E1Q, E6Q, K13Q, A23V, I37V, D83N, V87A, G97R
VL: B1 VL with Q3V, S10T, I44P, D70E, E81D, A92N, P100Q, D105E
B28: VH16/VL39 (antibody, human IgG1, V domains shown)
VH: B1 VH with F32Y, K97R
VL: B1 VL with Q3V, S10T, I44P, D70E, E81D, A92N, P100Q, D105E
B29: VH20/VL40 (antibody, human IgG1, V domains shown)
VH: B24 VH with E1Q, E6Q, K13Q, A23V, I37V, D83N, V87A, G97R
VL: B1 VL with Q3V, S7T, A43V, I44P, K45N, D70E, A92N, P100G, D105E
B30: VH16/VL40 (antibody, human IgG1, V domains shown)
VH: B1 VH with F32Y, K97R
VL: B1 VL with Q3V, S7T, A43V, I44P, K45N, D70E, A92N, P100G, D105E
B31: VH5VL43 (antibody, V domains shown)
VH: B24 VH
VL: B1 VL with Q3V, S7T, I44P, A92N
B32: VH20/VL43 (antibody, human IgG1, V domains shown)
VH: B24 VH with E1Q, E6Q, K13Q, A23V, I37V, D83N, V87A, G97R
VL: B1 VL with Q3V, S7T, I44P, A92N

molecular target: T1, human CD19; assay: flow cytometry, Raji cells, MPF vs chimeric FMC63
Method: (§1) Binding of the CD19 humanized monoclonal antibodies by flow cytometry to Raji tumor cells (human Burkitt lymphoma, DSMZ ACC319), NALM-6 (human B cell precursor leukemia, DSMZ ACC128) and SU-DHL-6 (human B cell lymphoma, DSMZ ACC572) (all cell lines from DSMZ Braunschweig, Deutschland) was assessed. Cells were incubated with serial dilutions of each humanized monoclonal antibody. An irrelevant human IgG1 was used as a negative control. The cells were washed and detected by a phycoerythrin-labeled (PE) anti-human secondary antibody (eBioscience, CA, USA) and analyzed by flow cytometry. […] From MFI versus antibody concentration curves, Mid-Point Fluorescence (MPF) value for each anti-CD19 humanized antibody was calculated using the software GraphPad Prism 5 (CA, USA).

relative MPF (% of chimeric FMC63) [%] | binding result | Binder
133 | – | B1
9.72 | – | B2
25.9 | – | B3
– | binds | B4
31.8 | – | B5
52.9 | – | B6
– | binds | B7
– | binds | B8
10 | – | B9
41.8 | – | B10
– | binds | B11
8.43 | – | B12
18.2 | – | B13
39.5 | – | B14

molecular target: T1, human CD19; assay: flow cytometry, Raji cells, MPF vs chimeric FMC63; remark: another data set of the same source
Method: as §1

relative MPF (% of chimeric FMC63) [%] | Binder
5.68 | B15
4.93 | B16

molecular target: T1, human CD19; assay: flow cytometry, NALM-6 cells, MPF vs chimeric FMC63
Method: as §1

relative MPF (% of chimeric FMC63) [%] | Binder
6.05 | B2
3.48 | B17
2.67 | B18
3.97 | B19
10.9 | B3
32.9 | B6
2.37 | B20
23.5 | B10
3.65 | B12
2.4 | B21

molecular target: T1, human CD19; assay: flow cytometry on Raji cells, PE-labelled anti-human secondary antibody, MFI against antibody concentration
Method: These immunoglobulins were assessed for antigen-binding affinity by half-maximal binding assays on B-cell lymphoma cell-lines (FACS) and compared to a chimeric version of FMC63 (this was to standardized level of staining from the anti-human Fc PE-labeled detection-antibody, as described in Example 2).
as §1

binding result | Binder
binds | B23
binds | B26
binds | B27
binds | B28
binds | B29
binds | B30
binds | B32

Binder | binding result
B22 | no binding (tested: about 10 ug/ml (Log(ug/ml) about 1))
B24 | no binding (tested: about 10 ug/ml (Log(ug/ml) about 1))
B25 | no binding (tested: about 10 ug/ml (Log(ug/ml) about 1))
B31 | no binding (tested: about 10 ug/ml (Log(ug/ml) about 1))

Reference: patent US20100215651A1 (GLENMARK PHARMACEUTICALS S A, published 2010)
